In PMC9482650, “Quantitative fragmentomics allow affinity mapping of interactomes” (Nature Communications, 2022):

T1: SNTG1, Q9NSN8
T1 sequence (Q9NSN8 52-150, limits assumed, looked up): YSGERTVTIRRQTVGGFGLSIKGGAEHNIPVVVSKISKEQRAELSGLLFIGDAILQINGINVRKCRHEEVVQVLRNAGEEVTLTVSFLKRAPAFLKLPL

T2: LRRC7, Q96NW7
T2 sequence (Q96NW7 1440-1537, limits assumed, looked up): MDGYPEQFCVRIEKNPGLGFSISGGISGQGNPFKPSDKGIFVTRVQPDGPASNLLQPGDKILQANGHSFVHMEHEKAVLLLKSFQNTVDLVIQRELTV

T3: PARD3B_1, Q8TEW8
T3 sequence (Q8TEW8 196-299, limits assumed, looked up): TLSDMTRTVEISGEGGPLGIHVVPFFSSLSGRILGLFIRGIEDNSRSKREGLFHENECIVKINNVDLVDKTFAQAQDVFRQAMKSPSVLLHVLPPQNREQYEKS

T4: NHERF3_3, Q5T2W1
T4 sequence (Q5T2W1 238-333, limits assumed, looked up): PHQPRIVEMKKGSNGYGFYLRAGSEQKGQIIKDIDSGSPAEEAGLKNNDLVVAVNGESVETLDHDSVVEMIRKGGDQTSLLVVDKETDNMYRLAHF

T5: SNTG2, Q9NY99
T5 sequence (Q9NY99 68-166, limits assumed, looked up): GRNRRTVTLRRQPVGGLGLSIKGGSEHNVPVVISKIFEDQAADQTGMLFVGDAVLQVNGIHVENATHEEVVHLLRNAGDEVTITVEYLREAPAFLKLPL

T6: MPP6, Q9NZW5
T6 sequence (Q9NZW5 125-219, limits assumed, looked up): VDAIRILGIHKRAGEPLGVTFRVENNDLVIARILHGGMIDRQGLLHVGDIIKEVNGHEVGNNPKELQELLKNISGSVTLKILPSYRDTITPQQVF

T7: NHERF3_1, Q5T2W1
T7 sequence (Q5T2W1 4-100, limits assumed, looked up): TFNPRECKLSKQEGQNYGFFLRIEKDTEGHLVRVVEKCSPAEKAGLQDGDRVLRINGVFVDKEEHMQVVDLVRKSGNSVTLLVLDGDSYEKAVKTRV

T8: TIAM2, Q8IVF5
T8 sequence (Q8IVF5 885-986, limits assumed, looked up): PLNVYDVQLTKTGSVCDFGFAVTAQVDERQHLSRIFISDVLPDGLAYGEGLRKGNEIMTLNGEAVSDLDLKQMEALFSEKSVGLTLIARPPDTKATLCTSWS


How the values were obtained:
Assay in all cases: holdup assay
Design in all cases: key: below the threshold = too weak to quantify, mostly under pKd 3.1 to 4
Conditions in all cases: plain residues with an end cap or a label only (N-terminal biotin on a linker: ado-ado)
SCRIB_1, Q14160 = target: SCRIB_1, Q14160
Chain of SCRIB_1, Q14160 (Q14160 718-814): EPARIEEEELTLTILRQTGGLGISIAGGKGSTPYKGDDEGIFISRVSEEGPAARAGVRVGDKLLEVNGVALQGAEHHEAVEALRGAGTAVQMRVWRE

SNTG1, Q9NSN8 = target: T1, SNTG1, Q9NSN8
LRRC7, Q96NW7 = target: T2, LRRC7, Q96NW7
ARHGEF12, Q9NZN5-2 = target: ARHGEF12, Q9NZN5-2
Chain of ARHGEF12, Q9NZN5-2 (Q9NZN5 other isoform, or with tags, fused parts or gaps): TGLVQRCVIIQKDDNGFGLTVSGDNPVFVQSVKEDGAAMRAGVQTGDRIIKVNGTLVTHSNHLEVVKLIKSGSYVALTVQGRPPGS

PARD3B_1, Q8TEW8 = target: T3, PARD3B_1, Q8TEW8
NHERF3_3, Q5T2W1 = target: T4, NHERF3_3, Q5T2W1
PICK1, Q9NRD5 = target: PICK1, Q9NRD5
Chain of PICK1, Q9NRD5 (Q9NRD5 17-115): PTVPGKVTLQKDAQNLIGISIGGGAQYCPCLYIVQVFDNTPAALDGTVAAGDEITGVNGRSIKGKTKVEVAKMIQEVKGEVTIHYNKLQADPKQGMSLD

IL16_4, Q14005 = target: IL16_4, Q14005
Chain of IL16_4, Q14005 (Q14005 1229-1329): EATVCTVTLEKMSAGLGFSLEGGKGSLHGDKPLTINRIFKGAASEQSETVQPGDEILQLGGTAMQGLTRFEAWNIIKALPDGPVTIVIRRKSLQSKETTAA

TJP1_3, Q07157 = target: TJP1_3, Q07157
Chain of TJP1_3, Q07157 (Q07157 416-512): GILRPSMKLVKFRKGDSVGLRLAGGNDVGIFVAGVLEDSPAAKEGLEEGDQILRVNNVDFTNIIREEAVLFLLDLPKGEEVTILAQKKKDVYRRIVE

DLG1_3, Q12959 = target: DLG1_3, Q12959
Chain of DLG1_3, Q12959 (Q12959 457-571): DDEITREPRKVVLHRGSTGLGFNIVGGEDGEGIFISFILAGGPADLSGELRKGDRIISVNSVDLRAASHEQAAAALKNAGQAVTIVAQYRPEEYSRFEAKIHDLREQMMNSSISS

IL16_1, Q14005 = target: IL16_1, Q14005
Chain of IL16_1, Q14005 (Q14005 210-306): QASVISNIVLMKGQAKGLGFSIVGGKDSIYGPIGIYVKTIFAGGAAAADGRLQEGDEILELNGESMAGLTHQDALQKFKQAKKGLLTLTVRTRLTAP

SNTG2, Q9NY99 = target: T5, SNTG2, Q9NY99
DLG4_3, P78352 = target: DLG4_3, P78352
Chain of DLG4_3, P78352 (P78352 306-403): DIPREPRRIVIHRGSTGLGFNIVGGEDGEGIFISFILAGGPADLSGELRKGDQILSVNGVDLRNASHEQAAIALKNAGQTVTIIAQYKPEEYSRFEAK

Inadl_3, Q8NI35 = target: Inadl_3, Q8NI35
Chain of Inadl_3, Q8NI35 (Q8NI35 359-469): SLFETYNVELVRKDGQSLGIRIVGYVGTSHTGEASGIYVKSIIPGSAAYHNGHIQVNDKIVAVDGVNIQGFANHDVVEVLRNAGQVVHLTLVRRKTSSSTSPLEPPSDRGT

Inadl_1, Q8NI35 = target: Inadl_1, Q8NI35
Chain of Inadl_1, Q8NI35 (Q8NI35 113-229): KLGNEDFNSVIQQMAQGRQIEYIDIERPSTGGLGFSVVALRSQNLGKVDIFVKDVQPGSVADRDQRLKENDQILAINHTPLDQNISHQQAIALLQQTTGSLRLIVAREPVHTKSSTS

NHERF4_4, Q86UT5 = target: NHERF4_4, Q86UT5
Chain of NHERF4_4, Q86UT5 (Q86UT5 464-550): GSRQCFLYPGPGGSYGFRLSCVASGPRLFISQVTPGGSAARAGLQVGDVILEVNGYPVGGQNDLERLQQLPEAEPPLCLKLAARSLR

LDB3, O75112 = target: LDB3, O75112
Chain of LDB3, O75112 (O75112 1-94): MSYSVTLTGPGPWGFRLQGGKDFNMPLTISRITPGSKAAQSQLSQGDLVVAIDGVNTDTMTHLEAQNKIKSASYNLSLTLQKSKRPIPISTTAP

MPP6, Q9NZW5 = target: T6, MPP6, Q9NZW5
LIMK2, P53671 = target: LIMK2, P53671
Chain of LIMK2, P53671 (P53671 143-248): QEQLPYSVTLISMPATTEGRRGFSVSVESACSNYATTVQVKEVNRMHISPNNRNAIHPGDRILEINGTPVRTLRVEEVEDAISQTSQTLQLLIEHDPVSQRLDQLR

PARD3_3, Q8TEW0 = target: PARD3_3, Q8TEW0
Chain of PARD3_3, Q8TEW0 (Q8TEW0 582-685): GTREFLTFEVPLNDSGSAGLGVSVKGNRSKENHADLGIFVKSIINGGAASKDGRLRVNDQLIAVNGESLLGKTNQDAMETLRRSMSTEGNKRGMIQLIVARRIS

SCRIB_3, Q14160 = target: SCRIB_3, Q14160
Chain of SCRIB_3, Q14160 (Q14160 999-1103): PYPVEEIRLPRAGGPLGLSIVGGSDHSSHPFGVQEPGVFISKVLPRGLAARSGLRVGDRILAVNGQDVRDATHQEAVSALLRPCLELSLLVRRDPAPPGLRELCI

DLG1_2, Q12959 = target: DLG1_2, Q12959
Chain of DLG1_2, Q12959 (Q12959 314-412): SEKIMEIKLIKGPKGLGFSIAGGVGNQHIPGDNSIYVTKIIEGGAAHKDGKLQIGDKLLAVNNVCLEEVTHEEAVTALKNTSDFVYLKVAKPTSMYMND

LAP2, Q96RT1 = target: LAP2, Q96RT1
Chain of LAP2, Q96RT1 (Q96RT1 other isoform, or with tags, fused parts or gaps): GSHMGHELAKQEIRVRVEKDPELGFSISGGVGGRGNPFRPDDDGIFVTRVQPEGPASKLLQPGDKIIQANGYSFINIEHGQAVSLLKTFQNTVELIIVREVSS

GRASP, Q7Z6J2 = target: GRASP, Q7Z6J2
Chain of GRASP, Q7Z6J2 (Q7Z6J2 96-193): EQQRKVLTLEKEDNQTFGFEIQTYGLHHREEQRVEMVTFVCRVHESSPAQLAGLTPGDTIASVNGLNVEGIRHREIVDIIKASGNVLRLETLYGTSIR

NHERF3_1, Q5T2W1 = target: T7, NHERF3_1, Q5T2W1
TIAM2, Q8IVF5 = target: T8, TIAM2, Q8IVF5
MAST2, Q6P0Q8 = target: MAST2, Q6P0Q8
Chain of MAST2, Q6P0Q8 (Q6P0Q8 1099-1202): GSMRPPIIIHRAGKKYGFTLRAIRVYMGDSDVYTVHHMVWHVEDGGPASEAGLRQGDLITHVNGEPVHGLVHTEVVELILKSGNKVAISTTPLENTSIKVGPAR

GRIP2_6, Q9C0E4 = target: GRIP2_6, Q9C0E4
Chain of GRIP2_6, Q9C0E4 (Q9C0E4 648-740): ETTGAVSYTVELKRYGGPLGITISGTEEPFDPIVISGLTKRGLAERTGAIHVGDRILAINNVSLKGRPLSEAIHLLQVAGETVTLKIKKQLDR

DLG4_2, P78352 = target: DLG4_2, P78352
Chain of DLG4_2, P78352 (P78352 155-259): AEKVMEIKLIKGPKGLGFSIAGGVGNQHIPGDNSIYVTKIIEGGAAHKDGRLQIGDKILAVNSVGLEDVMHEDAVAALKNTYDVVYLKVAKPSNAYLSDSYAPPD

PTPN3, P26045 = target: PTPN3, P26045
Chain of PTPN3, P26045 (P26045 505-587): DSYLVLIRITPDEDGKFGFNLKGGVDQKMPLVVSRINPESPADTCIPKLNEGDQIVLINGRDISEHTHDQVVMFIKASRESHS

Binder | pKd (SCRIB_1, Q14160) | pKd (SNTG1, Q9NSN8) | pKd (LRRC7, Q96NW7) | pKd (ARHGEF12, Q9NZN5-2) | pKd (PARD3B_1, Q8TEW8) | pKd (NHERF3_3, Q5T2W1) | pKd (PICK1, Q9NRD5) | pKd (IL16_4, Q14005) | pKd (TJP1_3, Q07157) | pKd (DLG1_3, Q12959) | pKd (IL16_1, Q14005) | pKd (SNTG2, Q9NY99) | pKd (DLG4_3, P78352) | pKd (Inadl_3, Q8NI35) | pKd (Inadl_1, Q8NI35) | pKd (NHERF4_4, Q86UT5) | pKd (LDB3, O75112) | pKd (MPP6, Q9NZW5) | pKd (LIMK2, P53671) | pKd (PARD3_3, Q8TEW0) | other results
QSLNRMEYIV [JAG1, P78504] | below the threshold | below the threshold | below the threshold | below the threshold | 3.83 | below the threshold | below the threshold | below the threshold | below the threshold | below the threshold | 3.91 | below the threshold | below the threshold | 5.17 | 3.69 | below the threshold | below the threshold | 3.9 | below the threshold | 4.37 | pKd (SCRIB_3, Q14160): below the threshold; pKd (DLG1_2, Q12959): below the threshold; pKd (LAP2, Q96RT1): below the threshold; pKd (GRASP, Q7Z6J2): below the threshold; pKd (NHERF3_1, Q5T2W1): below the threshold; pKd (TIAM2, Q8IVF5): 4.18; pKd (MAST2, Q6P0Q8): 4.07; pKd (GRIP2_6, Q9C0E4): 4.61; pKd (DLG4_2, P78352): 3.78; pKd (PTPN3, P26045): below the threshold
LPHGHSTTRV [NLGN4X, Q8N0W4] | below the threshold | below the threshold | below the threshold | 3.98 | below the threshold | below the threshold | 4.27 | 3.74 | below the threshold | 4.24 | below the threshold | 4 | 4.04 | below the threshold | below the threshold | below the threshold | below the threshold | below the threshold | below the threshold | below the threshold | pKd (SCRIB_3, Q14160): below the threshold; pKd (DLG1_2, Q12959): 4.04; pKd (LAP2, Q96RT1): 3.67; pKd (GRASP, Q7Z6J2): 4.29; pKd (NHERF3_1, Q5T2W1): 3.88; pKd (TIAM2, Q8IVF5): below the threshold; pKd (MAST2, Q6P0Q8): 5.12; pKd (GRIP2_6, Q9C0E4): below the threshold; pKd (DLG4_2, P78352): 3.97; pKd (PTPN3, P26045): 4.36
VRNLPESEEL [MYOZ3, Q8TDC0] | below the threshold | below the threshold | below the threshold | below the threshold | 3.58 | below the threshold | 4.05 | below the threshold | below the threshold | below the threshold | below the threshold | below the threshold | below the threshold | below the threshold | below the threshold | 3.85 | 5.19 | 3.64 | below the threshold | below the threshold | pKd (SCRIB_3, Q14160): below the threshold; pKd (DLG1_2, Q12959): below the threshold; pKd (LAP2, Q96RT1): below the threshold; pKd (GRASP, Q7Z6J2): 3.74; pKd (NHERF3_1, Q5T2W1): 3.88; pKd (TIAM2, Q8IVF5): below the threshold; pKd (MAST2, Q6P0Q8): 4.74; pKd (GRIP2_6, Q9C0E4): below the threshold; pKd (DLG4_2, P78352): below the threshold; pKd (PTPN3, P26045): 3.91

Continued, in another order:

pKd (SCRIB_1, Q14160) | pKd (SNTG1, Q9NSN8) | pKd (LRRC7, Q96NW7) | pKd (ARHGEF12, Q9NZN5-2) | pKd (PARD3B_1, Q8TEW8) | pKd (NHERF3_3, Q5T2W1) | pKd (PICK1, Q9NRD5) | pKd (IL16_4, Q14005) | pKd (TJP1_3, Q07157) | pKd (DLG1_3, Q12959) | pKd (IL16_1, Q14005) | pKd (SNTG2, Q9NY99) | pKd (DLG4_3, P78352) | pKd (Inadl_3, Q8NI35) | pKd (Inadl_1, Q8NI35) | pKd (NHERF4_4, Q86UT5) | pKd (LDB3, O75112) | pKd (MPP6, Q9NZW5) | pKd (LIMK2, P53671) | pKd (PARD3_3, Q8TEW0) | Binder | other results
below the threshold | below the threshold | below the threshold | below the threshold | 4.21 | below the threshold | 4.02 | 3.58 | below the threshold | below the threshold | below the threshold | below the threshold | below the threshold | below the threshold | below the threshold | below the threshold | below the threshold | below the threshold | below the threshold | below the threshold | GNSVLKSTQF [SLC22A12, Q96S37] | pKd (SCRIB_3, Q14160): below the threshold; pKd (DLG1_2, Q12959): below the threshold; pKd (LAP2, Q96RT1): below the threshold; pKd (GRASP, Q7Z6J2): 4.07; pKd (NHERF3_1, Q5T2W1): 6.17; pKd (TIAM2, Q8IVF5): 4.13; pKd (MAST2, Q6P0Q8): 4.77; pKd (GRIP2_6, Q9C0E4): below the threshold; pKd (DLG4_2, P78352): below the threshold; pKd (PTPN3, P26045): 4.59
5.5 | 4.45 | 4.08 | 5.07 | 3.95 | below the threshold | 4.18 | 3.61 | below the threshold | 4.1 | 3.62 | 4.8 | 4.11 | 3.59 | below the threshold | below the threshold | below the threshold | below the threshold | below the threshold | 3.59 | RHGSCVETSL [TMEM151B, Q8IW70] | pKd (SCRIB_3, Q14160): 5.36; pKd (DLG1_2, Q12959): 4.88; pKd (LAP2, Q96RT1): 3.94; pKd (GRASP, Q7Z6J2): 4.21; pKd (NHERF3_1, Q5T2W1): 5.38; pKd (TIAM2, Q8IVF5): below the threshold; pKd (MAST2, Q6P0Q8): 5.64; pKd (GRIP2_6, Q9C0E4): below the threshold; pKd (DLG4_2, P78352): 4.59; pKd (PTPN3, P26045): 5
